Laboratory results: PMC9663308, “AAA+ protease-adaptor structures reveal altered conformations and ring specialization” (Nature Structural & Molecular Biology, 2022)
Ends that are not written are not given here.

B1: ClpS adaptor (natural protein, E. coli)
chain: MGKTNDWLDFDQLAEEKVRDALKPPSMYKVILVNDDYTPMEFVIDVLQKFFSYDVERATQLMLAVHYQGKAICGVFTAEVAETKVAMVNKYARENEHPLLCTLEKA
notes: ClpS, E. coli, ~10 kDa; N-terminal extension (NTE) res; 2–26 and core domain res; 27–106; The NTE (res. 2–26) and the core (res. 27–106) are both spoken of, so the whole protein is likely; also called native ClpS; source: E. coli BL21(DE3), purified as described for His6-SUMO-fusion proteins
B2: ClpA (laboratory 'wild-type' ClpA carrying M169T), hexamer (enzyme, E. coli, UniProt P0ABH9 1-758, looked up)
chain: MLNQELELSLNMAFARAREHRHEFMTVEHLLLALLSNPSAREALEACSVDLVALRQELEAFIEQTTPVLPASEEERDTQPTLSFQRVLQRAVFHVQSSGRNEVTGANVLVAIFSEQESQAAYLLRKHEVSRLDVVNFISHGTRKDEPTQSSDPGSQPNSEEQAGGEERTENFTTNLNQLARVGGIDPLIGREKELERAIQVLCRRRKNNPLLVGESGVGKTAIAEGLAWRIVQGDVPEVMADCTIYSLDIGSLLAGTKYRGDFEKRFKALLKQLEQDTNSILFIDEIHTIIGAGAASGGQVDAANLIKPLLSSGKIRVIGSTTYQEFSNIFEKDRALARRFQKIDITEPSIEETVQIINGLKPKYEAHHDVRYTAKAVRAAVELAVKYINDRHLPDKAIDVIDEAGARARLMPVSKRKKTVNVADIESVVARIARIPEKSVSQSDRDTLKNLGDRLKMLVFGQDKAIEALTEAIKMARAGLGHEHKPVGSFLFAGPTGVGKTEVTVQLSKALGIELLRFDMSEYMERHTVSRLIGAPPGYVGFDQGGLLTDAVIKHPHAVLLLDEIEKAHPDVFNILLQVMDNGTLTDNNGRKADFRNVVLVMTTNAGVRETERKSIGLIHQDNSTDAMEEIKKIFTPEFRNRLDNIIWFDHLSTDVIHQVVDKFIVELQVQLDQKGVSLEVSQEARNWLAEKGYDRAMGARPMARVIQDNLKKPLANELLFGSLVDGGQVTVALDKEKNELTYGFQSAQKHKAEAAH
notes: ClpA, E. coli, AAA+ unfoldase with D1 and D2 modules; full-length with the M169T substitution that helps overexpression; also called ClpA6; WTClpA
B3: ClpP-His6, 14-mer (enzyme)
chain: not shown
notes: ClpP peptidase, E. coli; The atomic models hold one heptameric ClpP ring; also called ClpP14; ClpP7 ring; copies: 14

Experiments:
ClpS adaptor = molecular target: B1; assay: fluorescence polarisation; fluorescence anisotropy at equilibrium; ClpS alone (1.25–30 µM) titrated against 100 nM …-fluorescein; 30 °C, HO buffer, 2 mM ATPγS; conditions: both partners purified
[1] = molecular target: B2; assay: cryo-EM structure; ClpA6 (4 µM), ClpP14 (8 µM), ClpS (13 µM) and YLFVQELA-GFP (13 µM) mixed in assembly buffer (50 mM HEPES-KOH pH 7.5, 300 mM KCl, 5 mM MgCl2, 2 mM TCEP, 4% glycerol, 2 mM ATPγS), 5 min at 25 °C; largest complex from Superdex-200 taken for single-particle cryo-EM; conditions: both partners purified
ClpP-His6, 14-mer = molecular target: B3; assay: as above; conditions: both partners purified
[2] = molecular target: the molecule itself; assay: as above

Binder	binding result (ClpS adaptor)	binding result [1]	stoichiometry N (ClpP-His6, 14-mer)	stoichiometry N [2]
LLYVQRDSKEC-fluorescein (not fully specified (residue 11); printed as LLYVQRDSKEC-fluorescein, synthetic N-degron peptide, molecular weight 1779.9 g/mol; also called fluorescein-labeled N-degron peptide; N-degron peptide; source: synthetic peptide (21st Century Biochemicals)) [LLYVQRDSKEC-fluorescein N-degron synthetic peptide]	binds			
B1		binds		
B2			2 ClpA hexamers per ClpP 14-mer	6
B3		binds		14
